Experimental data: paper PMC4912634

Target: tubulin heterodimer (porcine/bovine brain tubulin) (not stated (porcine or bovine brain)) (UniProt Q6B856)
Assay: ITC; PN2-3 proteins/peptides titrated into tubulin in the cell; 15 °C; 1xBRB80 (80 mM PIPES-K, 1 mM MgCl2, 1 mM EGTA, pH 6.8); one set of binding sites model; tubulin 9 μM for wild type and mutant PN2-3

Binder: KQPFLKRGEGLARFTNAKSKFQK [PN2-3C peptide (PN2-3's C-terminus, aa 372-394 of CPAP)]
- Kd: 4.8 µM
